Results from patent publication US20220195052A1 (Biogen, published 2022).

How the values were obtained:
[1] = target: T1, αvβ5 integrin on stably transfected cells (human, UniProt P18084 24-799); test: flow cytometry on stably transfected cells, antibody titration (bivalent EC50)
T1 construct: whole, on cells
Protocol: (§1) Cells were washed in the appropriate assay buffer three times by pelleting at 1500 RPM for 3 minutes and then pouring out supernatant. Assay buffer for this experiment was TBS containing 1 mg/mL BSA and supplemented with either 1 mM Ca+1 mM Mg or with 1 mM Mn. Cells were then resuspended in assay buffer at a concentration of 1.0-1.5×10⁶ cells/mL and transferred to wells of a 96-well assay plate (Corning 3799) in 50 μL aliquots. Plates were then centrifuged at 2000 RPM for 3 minutes to pellet cells and supernatant was flicked out. Cells were resuspended in 100 μL of antibody sample and incubated on ice for 45 to 60 minutes.
(§2) Plates were washed three times in 150 μL assay buffer by pelleting at 2000 RPM for 3 minutes and then flicking out the supernatant. Cells were then resuspended in 50 μL of phycoerythrin-conjugated goat anti-human Fab secondary reagent and incubated on ice in the dark for 30 minutes. Plates were washed three times in 150 μL assay buffer by pelleting at 2000 RPM for 3 minutes and then flicking out the supernatant. Cells were then resuspended in 200 μL of assay buffer+1% polyformaldehyde (PFA) for 30 minutes on ice to fix the cells. Cells were pelleted to remove the PFA and then resuspended in 150 μL assay buffer.

[2] = target: T2, αvβ3 integrin on stably transfected cells (human, UniProt P05106 27-788); test: as above
T2 construct: whole, on cells
Protocol: as §1, §2

[3] = target: T3, human αvβ1 integrin on cells (human, UniProt P06756 31-1048; P05556 21-798); test: as above
T3 construct: also called stably transfected human αvβ1 cells; αvβ1 on MRC9 human lung fibroblasts
T3 sequence (P06756 31-1048 limits assumed, chain 1 of 2): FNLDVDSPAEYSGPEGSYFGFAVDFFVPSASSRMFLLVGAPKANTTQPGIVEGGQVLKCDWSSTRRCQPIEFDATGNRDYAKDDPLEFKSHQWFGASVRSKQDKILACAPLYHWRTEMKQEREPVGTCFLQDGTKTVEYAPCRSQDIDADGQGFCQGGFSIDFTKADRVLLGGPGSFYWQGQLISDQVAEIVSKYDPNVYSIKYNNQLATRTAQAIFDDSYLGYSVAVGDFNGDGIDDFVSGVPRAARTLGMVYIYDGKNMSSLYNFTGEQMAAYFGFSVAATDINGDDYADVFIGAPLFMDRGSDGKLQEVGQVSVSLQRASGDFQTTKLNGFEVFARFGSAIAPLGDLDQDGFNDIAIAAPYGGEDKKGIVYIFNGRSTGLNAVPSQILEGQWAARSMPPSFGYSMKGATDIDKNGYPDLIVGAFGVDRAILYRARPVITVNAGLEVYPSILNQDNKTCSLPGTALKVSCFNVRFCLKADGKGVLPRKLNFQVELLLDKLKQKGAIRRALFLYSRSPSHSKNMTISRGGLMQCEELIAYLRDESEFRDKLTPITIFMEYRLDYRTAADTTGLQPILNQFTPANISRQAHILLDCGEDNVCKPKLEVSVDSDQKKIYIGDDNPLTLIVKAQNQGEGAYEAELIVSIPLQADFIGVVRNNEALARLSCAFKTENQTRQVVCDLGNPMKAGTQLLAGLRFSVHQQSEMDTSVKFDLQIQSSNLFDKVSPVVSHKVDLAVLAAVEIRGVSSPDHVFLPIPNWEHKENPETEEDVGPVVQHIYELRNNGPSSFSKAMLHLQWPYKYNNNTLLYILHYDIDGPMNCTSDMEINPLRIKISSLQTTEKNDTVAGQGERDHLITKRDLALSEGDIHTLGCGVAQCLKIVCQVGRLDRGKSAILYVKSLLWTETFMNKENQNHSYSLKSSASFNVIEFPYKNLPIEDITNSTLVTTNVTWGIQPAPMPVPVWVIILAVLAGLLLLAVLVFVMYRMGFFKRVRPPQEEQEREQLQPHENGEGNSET
T3 sequence (P05556 21-798 limits assumed, chain 2 of 2): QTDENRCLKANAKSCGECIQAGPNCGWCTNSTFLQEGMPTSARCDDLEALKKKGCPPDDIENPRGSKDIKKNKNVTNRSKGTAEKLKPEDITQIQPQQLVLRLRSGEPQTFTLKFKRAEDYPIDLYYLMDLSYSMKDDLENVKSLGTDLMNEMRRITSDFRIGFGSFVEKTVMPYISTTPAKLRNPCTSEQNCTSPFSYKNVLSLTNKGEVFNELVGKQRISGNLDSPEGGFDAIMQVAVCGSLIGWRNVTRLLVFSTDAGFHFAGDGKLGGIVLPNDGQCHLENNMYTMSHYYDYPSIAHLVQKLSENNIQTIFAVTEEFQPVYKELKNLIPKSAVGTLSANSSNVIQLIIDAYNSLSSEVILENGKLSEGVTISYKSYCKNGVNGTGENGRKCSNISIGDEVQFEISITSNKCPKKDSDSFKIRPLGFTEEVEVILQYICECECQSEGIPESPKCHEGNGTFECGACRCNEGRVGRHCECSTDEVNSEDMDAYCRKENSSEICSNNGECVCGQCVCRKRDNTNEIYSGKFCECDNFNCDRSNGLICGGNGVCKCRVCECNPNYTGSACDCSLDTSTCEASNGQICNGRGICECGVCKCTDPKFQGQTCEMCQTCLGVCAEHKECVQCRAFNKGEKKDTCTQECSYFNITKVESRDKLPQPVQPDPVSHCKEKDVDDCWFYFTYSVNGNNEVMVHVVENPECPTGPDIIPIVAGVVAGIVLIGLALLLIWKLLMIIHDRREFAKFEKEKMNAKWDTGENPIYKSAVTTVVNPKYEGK
Protocol: as §1, §2

[4] = target: αvβ6 integrin on stably transfected cells (human, UniProt P06756 31-1048; P18564 22-788); test: as above
Protocol: as §1, §2

[5] = target: T4, αvβ8 integrin on stably transfected cells (human, UniProt P26012 43-769); test: as above
T4 construct: whole, on cells
T4 sequence (chain, as listed by the source, chain 1 of 2): as the sequence (P06756 31-1048 limits assumed, chain 1 of 2) above
T4 sequence (P26012 43-769, chain 2 of 2): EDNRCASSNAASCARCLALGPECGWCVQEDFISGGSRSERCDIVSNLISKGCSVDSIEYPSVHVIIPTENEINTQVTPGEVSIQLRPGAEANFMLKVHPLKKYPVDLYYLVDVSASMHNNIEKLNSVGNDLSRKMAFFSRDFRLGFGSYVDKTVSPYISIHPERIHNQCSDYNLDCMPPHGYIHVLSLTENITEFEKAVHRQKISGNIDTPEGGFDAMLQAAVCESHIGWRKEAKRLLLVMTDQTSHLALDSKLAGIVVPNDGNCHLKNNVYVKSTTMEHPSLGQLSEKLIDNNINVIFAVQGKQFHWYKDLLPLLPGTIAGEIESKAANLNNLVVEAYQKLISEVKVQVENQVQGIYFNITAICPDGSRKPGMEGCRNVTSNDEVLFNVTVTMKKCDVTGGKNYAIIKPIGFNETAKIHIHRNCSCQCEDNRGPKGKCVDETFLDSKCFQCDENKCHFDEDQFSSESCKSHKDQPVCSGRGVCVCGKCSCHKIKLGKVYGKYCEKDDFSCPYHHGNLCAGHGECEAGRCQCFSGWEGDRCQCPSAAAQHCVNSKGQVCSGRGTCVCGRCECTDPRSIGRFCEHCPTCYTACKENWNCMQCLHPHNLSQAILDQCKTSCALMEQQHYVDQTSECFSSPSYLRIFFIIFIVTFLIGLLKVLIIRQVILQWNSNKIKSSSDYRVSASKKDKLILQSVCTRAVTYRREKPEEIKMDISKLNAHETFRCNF
Protocol: as §1, §2

α4β1 integrin on cells = target: T5, α4β1 integrin on cells (human, UniProt P13612 34-1032); test: Jurkat cell adhesion to VCAM-Ig, confirming the absence of binding to α4β1 cells in Example 3
T5 construct: whole, on cells; also called α4β1 on Jurkat cells; stably transfected α4β1 cells
Protocol: (§3) The plate was washed twice with PBS (200 μl/well), blocked with 1% BSA in PBS (200 μl/well) for 1 h at room temperature, and washed thrice with 200 μl/well of assay buffer (TBS, 2 mM Glucose, 0.1% BSA, 1 mM CaCl₂) and 1 mM MgCl₂, pH 7.4). Jurkat cells were removed from cell suspension and centrifuged at 1500 rpm for 5 mins. The pellet was resuspended in RPMI 1640, 1% BSA buffer and incubated with 2 μM fluorescent dye (BCECF, Molecular Probes, Eugene, Oreg.) in a 37° C. incubator for 30 min. The labeled cells were washed twice by centrifugation at 1100 rpm for 5 min and resuspended in assay buffer to 0.8×10⁶ cells/ml. To individual wells of the washed plate were added 50 μl of purified antibody and 50 μl of Jurkat cells labeled with BCECF, and the plate was incubated at room temperature in dark for 1 h. The plate was washed 3-4 times with assay buffer (200 μl/well), and the fluorescence due to adhered cells on the plate was recorded at 485 nm (Excitation) and 538 nm (Emission) wavelength. Percent binding was determined by comparing the fluorescence prior to the final wash step (i.e. total cells added) to that after washing (i.e. bound cells).
This includes examples for a pan-αv commercial antibody (L230), a pan-β1 commercial antibody (mAb13), a published α4-specific antibody (natalizumab), and the c8 small molecule compound previously published as αvβ1 specific (Reed N I et al, Sci Transl Med, 7(288): 288ra79 (2015)).

[6] = target: T6, mouse αvβ1 integrin on BLO-11 mouse skeletal muscle fibroblasts (mouse, UniProt P43406 31-1044; P09055 21-798); test: flow cytometry on BLO-11 mouse skeletal muscle fibroblasts
T6 construct: whole, on cells; the cells carry other integrins as well; also called BLO-11 (murine fibroblast cells)
T6 sequence (P43406 31-1044, chain 1 of 2): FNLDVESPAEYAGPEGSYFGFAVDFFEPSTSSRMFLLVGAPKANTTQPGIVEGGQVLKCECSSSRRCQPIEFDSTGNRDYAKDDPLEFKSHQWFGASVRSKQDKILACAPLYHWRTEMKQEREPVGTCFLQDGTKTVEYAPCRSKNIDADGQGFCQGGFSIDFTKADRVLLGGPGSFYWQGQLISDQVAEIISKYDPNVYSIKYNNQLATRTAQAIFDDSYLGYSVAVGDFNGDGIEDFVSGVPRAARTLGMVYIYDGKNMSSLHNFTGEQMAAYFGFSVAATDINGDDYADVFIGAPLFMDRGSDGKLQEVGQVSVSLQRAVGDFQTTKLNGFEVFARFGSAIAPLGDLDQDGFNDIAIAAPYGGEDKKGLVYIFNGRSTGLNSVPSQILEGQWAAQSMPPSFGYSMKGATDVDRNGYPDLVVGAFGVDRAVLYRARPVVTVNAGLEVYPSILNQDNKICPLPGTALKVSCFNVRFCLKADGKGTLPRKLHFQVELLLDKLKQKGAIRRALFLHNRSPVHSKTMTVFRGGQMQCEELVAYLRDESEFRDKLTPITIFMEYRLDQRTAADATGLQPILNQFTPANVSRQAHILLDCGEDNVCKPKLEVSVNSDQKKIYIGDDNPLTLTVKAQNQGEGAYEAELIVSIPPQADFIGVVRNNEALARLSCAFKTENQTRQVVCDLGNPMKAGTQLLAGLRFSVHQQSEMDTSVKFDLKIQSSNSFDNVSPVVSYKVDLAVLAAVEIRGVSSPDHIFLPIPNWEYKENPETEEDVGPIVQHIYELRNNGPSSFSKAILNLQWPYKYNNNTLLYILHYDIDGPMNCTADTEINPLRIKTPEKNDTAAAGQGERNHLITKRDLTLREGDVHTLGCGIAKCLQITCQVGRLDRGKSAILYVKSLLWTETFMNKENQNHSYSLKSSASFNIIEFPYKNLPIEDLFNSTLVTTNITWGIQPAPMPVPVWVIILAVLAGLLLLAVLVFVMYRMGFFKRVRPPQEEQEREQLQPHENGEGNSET
T6 sequence (P09055 21-798, chain 2 of 2): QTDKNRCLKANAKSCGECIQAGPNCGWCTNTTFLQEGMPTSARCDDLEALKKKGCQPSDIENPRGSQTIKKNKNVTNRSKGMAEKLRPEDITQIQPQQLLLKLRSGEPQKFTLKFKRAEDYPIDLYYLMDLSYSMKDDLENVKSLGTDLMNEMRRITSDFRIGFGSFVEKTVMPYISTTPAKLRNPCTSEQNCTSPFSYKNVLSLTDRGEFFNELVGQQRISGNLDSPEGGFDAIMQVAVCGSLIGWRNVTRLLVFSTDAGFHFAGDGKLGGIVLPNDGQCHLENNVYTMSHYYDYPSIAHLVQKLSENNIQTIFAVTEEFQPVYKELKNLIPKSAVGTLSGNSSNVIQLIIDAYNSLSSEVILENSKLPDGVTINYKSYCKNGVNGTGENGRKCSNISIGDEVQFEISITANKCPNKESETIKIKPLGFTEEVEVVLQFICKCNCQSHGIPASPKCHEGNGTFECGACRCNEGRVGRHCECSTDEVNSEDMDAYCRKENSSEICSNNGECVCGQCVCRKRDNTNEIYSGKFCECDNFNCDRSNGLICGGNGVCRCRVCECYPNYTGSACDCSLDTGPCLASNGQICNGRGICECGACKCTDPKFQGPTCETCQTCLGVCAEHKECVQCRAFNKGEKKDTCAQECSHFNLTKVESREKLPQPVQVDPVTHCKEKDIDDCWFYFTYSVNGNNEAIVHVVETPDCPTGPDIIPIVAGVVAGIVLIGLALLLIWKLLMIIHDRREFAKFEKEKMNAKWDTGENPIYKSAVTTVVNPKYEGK
Protocol: MRC9 cells were obtained from Sigma (#85020202) and maintained in EMEM (ATCC, #30-2003) supplemented with 10% Fetal Bovine Serum (FBS from Gibco, #16000-077). BLO-11 cells were obtained from ATCC (#CCL-198) and maintained in DMEM (ATCC, #30-2002) supplemented with 10% FBS. Cells were harvested by incubating with cell dissociation buffer (Gibco, #13150-016) at 37° C. for 10 min and then washed with FACS buffer containing CaCl₂) and MgCl₂ (FACS⁺⁺ buffer; PBS+1% BSA+1 mM CaCl₂)+1 mM MgCl₂). All staining and wash steps were performed at 4° C. in FACS⁺⁺ buffer. In a 96 well U bottom plate, 0.75×10⁶ cells per well were plated and then spun down to remove supernatant. Cells were then resuspended in serially diluted primary antibody and incubated for 30 min. After incubation, cells were washed twice and then incubated with α-human IgG Alexa Fluor 647 (Invitrogen, #A21445) secondary antibody for another 30 min. Cells were then washed twice and fixed with 1% PFA diluted in PBS for 30 min, followed by a final wash. Fluorescence activated cell sorting (FACS) analysis was performed using a five-laser BD LSR-II flow cytometer (BD Biosciences, San Jose, Calif., USA), and data were analyzed using FlowJo software v9 (Treestar, Ashland, Oreg., USA) and transferred into analysis and graphic software including GraphPad Prism 7 (La Jolla, Calif., USA).

[7] = target: T3, human αvβ1 integrin on cells; test: inhibition of adhesion of BCECF-labelled αvβ1-transfected cells to plate-coated LAP
Protocol: as §3, with “7.4). Stably transfected human αvβ1” for “7.4). Jurkat”, “at 1100” for “at 1500”, “of human αvβ1” for “of Jurkat”

[8] = target: T4, αvβ8 integrin on stably transfected …; test: flow cytometry on stably transfected cells; weak binding observed but incomplete fit to calculate EC50
Protocol: as §1, §2

B1: Exemplary Antibody 18 (antibody, V domains shown)
VH: QVQLVQSGAEVKKPGASVKVSCKASGYTFRSFYMHWVRQAPGQGLEWMGVINPSLGSTGYAQKFQGRVTMTRDTSTSTVYMELSSLRSEDTAVYYCARETNYYRGGPAFDIWGQGTMVTVSS
VL: not shown
notes: expressed in yeast (Adimab platform) and purified on protein A; also called Ex. Ab 18
Q: For B1, which EC50 [1] is on record?
A: Its EC50 is 11 nM.

Q: What about the EC50 [2] of the same binder?
A: Its EC50 is 13 nM.

Q: What about the EC50 [3] of the same binder?
A: The EC50 was 2 nM.

Q: And the EC50 [4]?
A: The EC50 was 16 nM.

Q: What about the EC50 [5] of the same binder?
A: The EC50 was 10 nM.

B2: Exemplary Antibody 17 (antibody, V domains shown)
VH: EVQLVQSGAEVKKPGESLKISCKGSGYSFTSYWIGWVRQMPGKGLEWMGIIYPGDSDTRYSPSFQGQVTISADKSISTAYLQWSSLKASDTAMYYCARGPRSRGDGPSNYYYMDVWGQGTLVTVSS
VL: DIQMTQSPSTLSASVGDRVTITCRASQSISSWLAWYQQKPGKAPKLLIYKASSLESGVPSRFSGSGSGTEFTLTISSLQPDDFATYYCQQYRPLPPTFGGGTKVEIK
notes: expressed in yeast (Adimab platform) and purified on protein A; also called Ex. Ab 17
Q: What does the source list for B2?
A: binding result (α4β1 integrin on cells): no binding; binding result [6]: binds; EC50 [2]: 3.3 nM; EC50 [3]: 1.4 nM; IC50 [7]: < 1 nM

B3: Exemplary Antibody 19 (antibody, V domains shown)
VH: QVQLVESGGGVVQPGRSLRLSCAASGFTFSSYGMHWVRQAPGKGLEWVAVISYDGSNKYYADSVKGRFTISRDNSKNTLYLQMNSLRAEDTAVYYCARGGPTRGDGTRVYYYGMDVWGQGTTVTVSS
VL: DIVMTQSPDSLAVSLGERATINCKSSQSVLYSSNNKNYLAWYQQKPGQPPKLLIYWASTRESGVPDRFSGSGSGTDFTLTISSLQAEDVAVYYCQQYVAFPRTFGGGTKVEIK
notes: expressed in yeast (Adimab platform) and purified on protein A; also called Ex. Ab 19
Q: Does B3 bind (α4β1 integrin on cells)?
A: Result: no binding

Q: Does B3 bind [6]?
A: Result: binds

Q: What about the EC50 [3] of the same binder?
A: Its EC50 is 2.8 nM.

Q: And the EC50 [5]?
A: Its EC50 is 2.8 nM.

Q: What about the IC50 [7] of the same binder?
A: The IC50 was 1.4 nM.

B4: Exemplary Antibody 5 (antibody, V domains shown)
VH: EVQLVESGGGVVQPGRSLRLSCAASGFTFKYYGMHWVRQAPGKGLEWVASIWYDGSNKKYADSVKGRFTISRDNSKNTLYLQMNSLRAEDTAVYYCARGGPTRGDGTRVYYYGMDVWGQGTTVTVSS
VL: EIVMTQSPATLSVSPGERATLSCRASQSVSSNLAWYQQKPGQAPRLLIYSASTRATGIPARFSGSGSGTEFTLTISSLQSEDFAVYYCQQYYHHPFTFGGGTKVEIK
notes: expressed in yeast (Adimab platform) and purified on protein A; also called Ex. Ab 5
Q: Does B4 bind (α4β1 integrin on cells)?
A: Result: no binding

B5: Exemplary Antibody 14 (antibody, V domains shown)
VH: QVQLVESGGGLVKPGGSLRLSCAASGFTFSDYYMSWIRQAPGKGLEWVSYISSSGSTIYYADSVKGRFTISRDNAKNSLYLQMNSLRAEDTAVYYCARERGNRGDTPRYYYMDVWGKGTTVTVSS
VL: DIQMTQSPSSLSASVGDRVTITCRASQSISRYLNWYQQKPGKAPKLLIYAASSLQSGVPSRFSGSGSGTDFTLTISSLQPEDFATYYCQQSLVTPFTFGGGTKVEIK
notes: expressed in yeast (Adimab platform) and purified on protein A; also called Ex. Ab 14
Q: With B5 as the binder, how does the EC50 [3] read?
A: The EC50 was 0.8 nM.

Q: And the IC50 [7]?
A: Its IC50 is 2.2 nM.

B6: Exemplary Antibody 6 (antibody, V domains shown)
VH: QVQLVESGGGLVKPGGSLRLSCAASGFTFSDYYMSWIRQAPGKGLEWVSYISSSGSTIYYADSVKGRFTISRDNAKNSLYLQMNSLRAEDTAVYYCARGGRNRGDSSLSGIDVWGQGTTVTVSS
VL: DIQMTQSPSSLSASVGDRVTITCRASQSINSYLNWYQQKPGKAPKLLIYAASSLQSGVPSRFSGSGSGTDFTLTISSLQPEDFATYYCQQQYSDITFGGGTKVEIK
notes: expressed in yeast (Adimab platform) and purified on protein A; also called Ex. Ab 6
Q: Which results are given for B6?
A: EC50 [3]: 0.8 nM; IC50 [7]: 9 nM

B7: Exemplary Antibody 13 (antibody, V domains shown)
VH: QVQLVESGGGLVKPGGSLRLSCAASGFTFSDYYMSWIRQAPGKGLEWVSYISSSGSTIYYADSVKGRFTISRDNAKNSLYLQMNSLRAEDTAVYYCARGGPSRGDALAEYFQHWGQGTTVTVSS
VL: EIVMTQSPATLSVSPGERATLSCRASQSVSSNLAWYQQKPGQAPRLLIYGASTRATGIPARFSGSGSGTEFTLTISSLQSEDFAVYYCQQLTNHPPIAFGGGTKVEIK
notes: expressed in yeast (Adimab platform) and purified on protein A; also called Ex. Ab 13
Q: B7 was tested. Which EC50 [3] did it give?
A: The EC50 was 0.6 nM.

Q: And the IC50 [7]?
A: Its IC50 is 1.3 nM.

B8: Exemplary Antibody 20 (antibody, V domains shown)
VH: QVQLVESGGGLVKPGGSLRLSCAASGFTFSDYYMSWIRQAPGKGLEWVSYISSSGSTIYYADSVKGRFTISRDNAKNSLYLQMNSLRAEDTAVYYCARGGPSRGDALAEYFQHWGQGTTVTVSS
VL: EIVLTQSPATLSLSPGERATLSCRASQSVSRYLAWYQQKPGQAPRLLIYDASNRATGIPARFSGSGSGTDFTLTISSLEPEDFAVYYCQQLSLHPPYTFGGGTKVEIK
notes: expressed in yeast (Adimab platform) and purified on protein A; also called Ex. Ab 20
Q: Does B8 bind [8]?
A: Result: binds

Q: And the EC50 [3]?
A: Its EC50 is 0.4 nM.

Q: What about the IC50 [7] of the same binder?
A: The IC50 was 1 nM.

B9: Exemplary Antibody 7 (antibody, V domains shown)
VH: QVQLVESGGGLVKPGGSLRLSCAASGFTFSDYYMSWIRQAPGKGLEWVSYISSSGSTIYYADSVKGRFTISRDNAKNSLYLQMNSLRAEDTAVYYCARGGPSRGDALAEYFQHWGQGTTVTVSS
VL: EIVMTQSPATLSVSPGERATLSCRASQSVSSNLAWYQQKPGQAPRLLIYGASTRATGIPARFSGSGSGTEFTLTISSLQSEDFAVYYCQQLVNYPPITFGGGTKVEIK
notes: expressed in yeast (Adimab platform) and purified on protein A; also called Ex. Ab 7
Q: Which EC50 [3] does the source give for B9 here?
A: The EC50 was 1.2 nM.

Q: What about the IC50 [7] of the same binder?
A: The IC50 was 4.3 nM.

B10: Exemplary Antibody 4 (antibody, V domains shown)
VH: QVQLVESGGGLVQPGGSLRLSCAASGFTFTSYYMHWVRQAPGQGLEWMGIINPSGGSTSYAQKFQGRVTMTRDTSTSTVYMELSSLRSEDTAVYYCARQQRHRRDYDYYYGMDVWGQGTTVTVSS
VL: EIVLTQSPGTLSLSPGERATLSCRASQSVSSDYLAWYQQKPGQAPRLLIYGASRRATGIPDRFSGSGSGTDFTLTISRLEPEDFAVYYCQQAYSLPPTFGGGTKVEIK
notes: expressed in yeast (Adimab platform) and purified on protein A; also called Ex. Ab 4
Q: Does B10 bind (α4β1 integrin on cells)?
A: Result: no binding

Q: Does B10 bind [6]?
A: Result: binds

Q: What about the EC50 [3] of the same binder?
A: The EC50 was 4.9 nM.

Q: What about the IC50 [7] of the same binder?
A: Its IC50 is 2.8 nM.
